This assay has as its target Recombinant Rac1 (1-192aa), His-tagged fusion protein (UniProt P63000 1-192). Put plainly: pull-down; cell-free: 5 μg purified His-Rac1 in 20 μl GTP binding buffer (20 mM Tris-HCl pH 7.6, 100 mM NaCl, 2 mM MgCl2, 1 mM DTT) with 1% BSA, GTP-γS (0.01-10 μM, or 200 nM after 1 h with compound #1 or #6) for 10 min at room temperature, then 1 h with GST-PAK1 on agarose beads; Rac1 immunoblot. The settings on record: both partners purified. (A western blot detects proteins with antibodies after separation by electrophoresis.)

B1: GST-PAK1-PBD (70-117aa) (domain or fragment)
chain: KERPEISLPSDFEHTIHVGFDAVTGEFTGMPEQWARLLQTSNITKSEQ
notes: Held on glutathione/agarose beads; The methods also name a Rac1/Cdc42 assay kit (Upstate Biotechnology); also called GST-PAK1 (RBD); source: E. coli DH5α, purified on glutathione resin; plasmid from Addgene
As for B1, the binding result was “binds”.

These data come from paper PMC5470993, “Discovery and characterization of small molecule Rac1 inhibitors” (Oncotarget, 2017).
